Test: yeast display, Sf9 membrane polyspecificity reagent, FACS + sequencing; frameworks hold sequencing errors
Outline: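 Galactose-induced (36–48 hours) yeast carrying a synthetic nanobody display library were exposed to 10% biotinylated, detergent-solubilized Sf9 membrane reagent at 4 °C for 1 hour. FACS followed streptavidin microbead enrichment, using low and high (top ~1%) gates for expression (anti-HA) and reagent binding (streptavidin). Colony PCR, MiSeq 2 × 250 sequencing and CDR-length filtering followed. Labels for polyreactivity reflect the gate of origin.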

Row | Sequence | polyreactivity (PSR sort gate)
1 | QVQLVESGGGLVQAEGSLRLSCAASGIIFFHNAMGWYRQAPGKERELVATISRSGGSTYYADSVKGRFTISRDNAKNTVYLQMNSLKPEDTAVYYCAARQSIFYSWTGVEYYYWGQGTQVTVSS | low polyreactivity
2 | QVQLVESGGGLVQAGGSLRLSCAASGRTFWKYVMGWYRQAPGKERELVAVISRPAGSTYYADSVKGRFTISRDNAKNSVYLQMNSLKPEDTAVYYCAKRPKNKPVLGDYDHWGQGTQVTVSS | low polyreactivity
3 | QVQLVESGGGLVQAGGSLRLSCAASGFIFEYYVMGWYRQAPGKERELVAAISSSDGSTNYADSVKGRFTISRDNAKNTVYLQMNSLKPEDTAVYYCAKDLLKSYNRVVVDADDYWGQGTQVTVSS | low polyreactivity
4 | QVQRVESGGGLVQAGGSLRLSCAASGSTFARYAMGWYRQAPGKEREFVAAITYSGGRTYYADTVKGRFTISRDNAKNTVYLQMNSLKPEDTAVYYCAARRRYRYDYWGQGTQVTVSS | high polyreactivity
5 | QVQLVESGGGLVQAGGSLRLSCAASGRTFKYYAMGWYRQAPGKERELVAAISSRGGSTYYADSVKGRFTISRDNAKNTVYLQMNSLKPEDTAVYYCAKGTYLSTSTVANDYWGQGTQVTVSS | high polyreactivity
6 | QVQLVESGGGLVQAGGSLRLSCAASGITFGRYAMGSYRQPPGKEREFVAAISWSGGSTYYADSVKGRFTISLDNATNPVYLQINSLKPEDTAVYYCAVEWYYTSYHIRVYRDNYWGQGTQVTVSS | high polyreactivity
7 | QVQLVESGGGLVQAGGSLRLSCAASGSIFADYVMGWYRQAPGKDRELVAAITRRGRTYYADSVKGRFTISRDNAKNTVYLQMNSLKPEDTAVYYCAKVGSGNIDSWGQGTQVTVSS | low polyreactivity
8 | QVQLEESGGGLVQAGGSLRLSCAASGSTFAVYAMGWYRQAPGKERELVAAINRSGDSTYYADSVKGRFTISRDNAKNTVYLQMNSLKPEDTAVYYCAAYQRVRSGVDMYSWGQGTQVTVSS | high polyreactivity
9 | QVQLVESGGGLVQAGGSLRLSCAASGITFWLYAMGWYRQAPGKERELVAAITSGGSTTYADSVKGRFTISRDNAKNTVFLQMYSLKPEDSAVYYCNAEYQDWFGRLDYWGQGTQVTVSS | high polyreactivity
10 | QVQLVESGGGLVQAGGSLRLSFAASGSISLYYAMGWYRKAPGKETELVAAISTRGGSTYYADSVKGRFTISRDNAKNTVYLQMNSLKPEDTAVYYCAARTRLTADPRYGISSKMYYWGQGTQVTVSS | high polyreactivity
11 | QVQLGESGGGLVQAGGSLRLSCAASGSILRSYAMGWYRQAPGKERELVAVINGSGDRTYYADSVKGRFTISRDTAKNTVYLQMNSLKPEDTAVYYCNVVRRSPGDYSYYYWGKGTQVTVSS | low polyreactivity
12 | QVQLVESGGGLVQAGGSLRLICAASGSTFWRYAMGWYRQAPGKERELVAAITGNGGRTYYADSVKGRFTISRDNAKNTVYLQMNSLKPEDTAVYYCAARYRGGVSVGYWGQGTQVTVSS | high polyreactivity
13 | QVQLVESGGGLVQAGCSLRLSCAASGRIFQTNVMGWYRQAPGKDRELVAAISYRGGTTYYADSVKGRFTISRDNAKNTVYLQMNSLKPEDPAVYYCAALHYRIRRTGMDYWGQGTQVTVSS | low polyreactivity
14 | QVQLVESGGGLVQAGGTLRLSCAASGRIFRVYAMGWYRQAPGKERELVATITRGGSTYADSVKGRFTISRDNAKNTVYLQMNSLKPEDTAVYYCAADLVLGYRYDYWGQVTQVTVSS | high polyreactivity
15 | QVQLVESGGGIVQAGGSLRLSCAASGSIFDSYTMGWYRQAPGKERELVATINRSGGSTYYADSVKGRFTISRDTAKNTVYLQMNSLKPEDTAVYYCATVYPYTPYSSWRSKYDYWGQGTQVTVSS | low polyreactivity
16 | QVQLVESGGGLVQAGGSLRLSCAASGRTFRHNDMGWYRQAPGKERELVAAISYSGGSTHYADSVKGRFTISRDNAKNTVYLQMNSLKPEDTAVYYCNRYSYDSHFLYPFRGHDYWGQGTQVTVSS | low polyreactivity

Row | Sequence | polyreactivity (PSR sort gate)
17 | QDQLVESGGGLVQAGGSLRLSCAASGSTSRTYAMGWYRQAPGKERELVAAINSGGTTYYADSVKGRFTISRDNAKNTVYLQMNSLKPEDTAVYYCARRDFWWSLRIFGYWGQGTQVTVSS | high polyreactivity
18 | QVQLVESGGGLVQAGGSLRLSCAASGSTFYHNAMGWYRQAPGKERELVAAITSGTSTYYADSVKGRFTISRDNAKNTVYLQMNSLKPEDTAVYDCAADSPWGGGYFVLYNYWGQGTQVTVSS | low polyreactivity
19 | QVQLVESGGGLVQAGGSLRLSCAASGLTCSRYAMGWYRQAPGKERELVASISQGGGSTYYADSVKGRFTISRDNAKNTVYLQMTSLKPEDTAVYYCAASWYYSLQRYGYWGQGTQVTVSS | high polyreactivity
20 | QVQLVESGGGLVQAGGSLRLSCAASGRIFDGYAMGWYRQAPGKERELVATITRGGSTNYADSVKRPFTISRDNAKNTVYIQMNSLKPEDTAVYYCNADIRRHGGYAHEYWGEGTQVTVSS | low polyreactivity
21 | QVQLVESGGGLVQAGGSLRLSCAASGFIFPTYAMGWYRQAPGKERELVAAITWSGSDTYYADSVKGRFTISRDNAKNTVYLQMNRLKPEDTAVYYCAAEVSKYGWRYYYWGQGTQVTVSS | low polyreactivity
22 | QVQLVESGGGLVQAGGILRLSCAAYGSIFPHNAMGWYRQAPGKERELVASITSRGGITYYADSVKGRFTISRDNAKNTGYLQMNSLIPEDTAVYYCAGDLYIYPYDYWGQGTQVTVSS | low polyreactivity
23 | QVQLVESGGGLVQAGGSLRLSCAASGRTFASNAMGWYRQAPGKERELVAAISSSGGRTYYADSVKGRFTISRDNAKNTVYLQMNSLKPEDTAVYYCAKVGPVYKYDYWGQGTQVTVSS | high polyreactivity
24 | QVQLVESGGGLVQAGGSLRLSCAASGRTFSRNAMGWYRQAPGKERELVATISSSGVRTYYADSVKGRFTISRDNAKNTVYVQMNSLKPEDTGVYYCAAALRYFSAASGYDYWGQGTQVTVTS | low polyreactivity
25 | QVQLVESGGGLVQAGGSLRLSCAASGFTFRKYAMGWYRQAPGKERELVAGISWSGGTTYYADSVKGRFTISRDNAKNTVYLQMNSLKPEDTAVYYCNAKRVQVFAGYSYDYWGQGTQVTVSS | high polyreactivity
26 | QVQLVESGGGLVQAGGSLRLSCAASGSIFWPNAMGWYRQAPGKERELVAAISWGTGSTYYADSVKGRFTISRDNAKNTVYLQMNSLKPEDTAVYYCAADGAYLDPYYDYWGQGTQVTVSS | low polyreactivity
27 | QVQLVESGGGLVQAGGSLRLSCAASGSIFEYNDMGWYRQAPGKERELVAAISWNGGSTYYADSVKGRFTISRDNAKNTVYLPMNSLKPEETAVYYCNTRYSPGYQGTEVDYWGQGTQVTVSS | low polyreactivity
28 | QVQLVESGGGLVQAGGSLRLSCAASGRTFGYNAMGWYRQAPGKESELVAAINWSGASTYYADSVKGRFTISRDNAKNTVYLQMNSLKAEDTAVYYCAADYSYIYGFDYWGQGTQVTVSS | low polyreactivity
29 | QVQHVESGGGLVQAGGSLRLSCASSGSTSGIHAMGWYRQAPGKDRELVAAIRLSGGRTYYADSVKGRFTISRDNAKNTVYLQMNSLKPEDTAVYFCNALYRQARIRATYDYWGQGTQVSVSS | high polyreactivity
30 | QVQLVESGGGLVQAGGSLRLSCAASGFTFYYYTLGWYRQAPGKVRELVARITTRGTSTYYADSVKGRFRISRDTPKNTVYLPMNSLKPEDTAVYYCAAQVGRGYEVYAVYKYGYWGQGTQVTVSS | high polyreactivity
31 | QVQLVESGGGLVQAGGSLRLSCAASGIIFATNGMGWYRQAPGKEREFVASSTNGGSTNYADSVKGRFTISRDNAKNTVYLQMNSLKPEDTAVYYCAAAASDDYDYPTEYEYWGQGTQVTVSS | high polyreactivity
